The target in assay [1] is integrin α6β1 on bovine adrenal microvascular endothelial (BCE) cells (bovine) (UniProt P53712). Description: cell-based or functional assay.
The target of assay [2] is α6-subunit containing integrins on mouse IBE (Immortomouse brain capillary endothelial) cells. Description: cell-based or functional assay.
Assay [3] addresses integrin α2 on HT-1080 cells (human) (UniProt P17301). Description: cell-based or functional assay.
The target in assay [4] is T1, disulfide-linked β1/γ1 dimer of r-laminin 8 (mouse β1, human γ1) (mouse; human, UniProt P02469 22-1786; P11047 34-1609).
T1 construct: mature; also called covalently associated dimers; the dimers
Description: non-reducing SDS-PAGE of anti-FLAG purified r-laminin 8. The source says:
The r-laminin 8 bound to anti-FLAG M2 matrix with high specificity. […] (FIG. 1) Under non-reducing conditions, the purified protein hardly entered the gel, which was to be expected as the predicted molecular weight for the mature trimer is at least 570 kD. A minor fraction of the purified trimer appeared as non-covalently associated (see discussion). In this fraction, the β1 and γ1 chains appeared as covalently associated dimers, whereas the α4 chain was non-covalently associated. Under reducing conditions, the protein appeared as a broad band at around 200 kD, which reacted on Western blots with α4, EHS, γ1, and anti-FLAG antibodies. The predicted molecular weights for mature α4, β1, and γ1 polypeptides are 200, 195, and 174 kD respectively. Laminins are heavily glycosylated, which may account for the slight discrepancy in molecular weight observed in SDS-PAGE.

integrin α2 on HT-1080 cells (human), sequence (P17301 30-1181): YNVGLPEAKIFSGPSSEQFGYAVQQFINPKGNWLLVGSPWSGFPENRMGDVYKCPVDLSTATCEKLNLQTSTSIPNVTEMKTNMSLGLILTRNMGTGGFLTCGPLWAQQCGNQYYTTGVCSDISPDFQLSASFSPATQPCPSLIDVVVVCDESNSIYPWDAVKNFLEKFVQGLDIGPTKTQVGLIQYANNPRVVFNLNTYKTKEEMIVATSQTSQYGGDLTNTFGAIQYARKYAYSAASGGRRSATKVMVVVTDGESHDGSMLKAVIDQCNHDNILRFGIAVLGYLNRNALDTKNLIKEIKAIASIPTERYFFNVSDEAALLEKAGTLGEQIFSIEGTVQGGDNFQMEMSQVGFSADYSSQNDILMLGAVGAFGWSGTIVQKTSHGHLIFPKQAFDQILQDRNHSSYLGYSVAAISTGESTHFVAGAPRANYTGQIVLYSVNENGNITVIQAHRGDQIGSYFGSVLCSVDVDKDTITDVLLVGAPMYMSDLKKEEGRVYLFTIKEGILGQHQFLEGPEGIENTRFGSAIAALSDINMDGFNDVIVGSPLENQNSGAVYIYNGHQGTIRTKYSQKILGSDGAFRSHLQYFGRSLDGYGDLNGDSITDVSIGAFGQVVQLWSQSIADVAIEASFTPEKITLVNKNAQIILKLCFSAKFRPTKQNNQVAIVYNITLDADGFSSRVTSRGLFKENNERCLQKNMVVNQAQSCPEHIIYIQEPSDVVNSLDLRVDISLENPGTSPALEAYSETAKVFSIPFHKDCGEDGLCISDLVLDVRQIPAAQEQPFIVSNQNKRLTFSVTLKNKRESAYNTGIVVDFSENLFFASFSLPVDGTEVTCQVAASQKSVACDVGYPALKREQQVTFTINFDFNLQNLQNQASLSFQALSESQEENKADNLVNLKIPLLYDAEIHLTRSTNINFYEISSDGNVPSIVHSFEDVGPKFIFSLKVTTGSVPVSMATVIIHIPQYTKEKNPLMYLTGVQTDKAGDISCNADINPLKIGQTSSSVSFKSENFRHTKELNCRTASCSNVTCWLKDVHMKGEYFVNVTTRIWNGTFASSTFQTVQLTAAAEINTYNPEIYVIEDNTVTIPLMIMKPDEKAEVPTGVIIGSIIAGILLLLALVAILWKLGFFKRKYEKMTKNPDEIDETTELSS
integrin α6β1 on bovine adrenal microvascular endothelial (BCE) cells (bovine), sequence (P53712 21-798): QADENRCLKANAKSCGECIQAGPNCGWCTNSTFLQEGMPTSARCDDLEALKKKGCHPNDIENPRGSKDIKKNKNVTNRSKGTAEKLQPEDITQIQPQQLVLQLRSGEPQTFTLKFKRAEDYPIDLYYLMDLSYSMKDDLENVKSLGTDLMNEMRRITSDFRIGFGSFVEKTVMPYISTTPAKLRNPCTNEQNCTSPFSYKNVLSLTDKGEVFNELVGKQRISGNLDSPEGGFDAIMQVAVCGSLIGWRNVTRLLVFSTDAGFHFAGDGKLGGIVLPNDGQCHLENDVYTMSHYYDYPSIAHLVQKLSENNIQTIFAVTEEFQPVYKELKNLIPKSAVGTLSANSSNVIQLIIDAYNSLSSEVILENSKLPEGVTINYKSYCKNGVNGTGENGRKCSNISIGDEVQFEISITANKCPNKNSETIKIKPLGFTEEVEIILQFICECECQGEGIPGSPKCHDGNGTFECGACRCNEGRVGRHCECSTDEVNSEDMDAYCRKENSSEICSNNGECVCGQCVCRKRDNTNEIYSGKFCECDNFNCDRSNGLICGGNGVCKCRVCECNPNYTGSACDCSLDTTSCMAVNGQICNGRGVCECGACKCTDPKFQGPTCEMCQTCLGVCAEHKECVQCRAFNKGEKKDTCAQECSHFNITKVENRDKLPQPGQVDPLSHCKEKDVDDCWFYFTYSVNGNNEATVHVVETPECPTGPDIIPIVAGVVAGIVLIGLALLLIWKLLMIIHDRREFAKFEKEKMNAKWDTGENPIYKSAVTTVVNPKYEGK

In assay [1], “recombinant laminin 8 (human α4 chain with C-terminal FLAG epitope, mouse β1 chain, human γ1 chain) (from UniProt Q16363 25-1823; P02469 22-1786; P11047 34-1609)” yielded a BCE cell adhesion to coated r-laminin 8 with anti-β1 mAb AIIB2, percent blocked of 70%. In assay [2], this molecule gave an IBE cell adhesion to coated r-laminin 8 with anti-α6 mAb, percent blocked of 60%.
“collagen type IV from EHS-tumor (from UniProt P02463 28-1669; P08122 26-1707)” returned an HT-1080 cell adhesion to Type IV collagen with anti-integrin α2 mAb, percent of control in assay [3] of 50%.

B1: human laminin α4 chain containing a C-terminal FLAG epitope (other)
chain: ASGDDNAFPFDIEGSSAVGRQDPPETSEPRVALGRLPPAAEKCNAGFFHTLSGECVPCDCNGNSNECLDGSGYCVHCQRNTTGEHCEKCLDGYIGDSIRGAPQFCQPCPCPLPHLANFPESCYRKNGAVRCICNENYAGPNCERCAPGYYGNPFLIGSTCKKCDCSGNSDPNLIFEDCDEVTGQCRNCLRNTTGFKCERCAPGYYGDARIAKNCAVCNCGGGPCDSVTGECLEEGFEPPTGCDKCVWDLTDDLRLAALSIEEGKSGVLSVSSGAAAHRHVNEINATIYLLKTKLSERENQYALRKIQINNAENTMKSLLSDVEELVEKENQASRKGQLVQKESMDTINHASQLVEQAHDMRDKIQEINNKMLYYGEEHELSPKEISEKLVLAQKMLEEIRSRQPFFTQRELVDEEADEAYELLSQAESWQRLHNETRTLFPVVLEQLDDYNAKLSDLQEALDQALNYVRDAEDMNRATAARQRDHEKQQERVREQMEVVNMSLSTSADSLTTPRLTLSELDDIIKNASGIYAEIDGAKSELQVKLSNLSNLSHDLVQEAIDHAQDLQQEANELSRKLHSSDMNGLVQKALDASNVYENIVNYVSEANETAEFALNTTDRIYDAVSGIDTQIIYHKDESENLLNQARELQAKAESSSDEAVADTSRRVGGALARKSALKTRLSDAVKQLQAAERGDAQQRLGQSRLITEEANRTTMEVQQATAPMANNLTNWSQNLQHFDSSAYNTAVNSARDAVRNLTEVVPQLLDQLRTVEQKRPASNVSASIQRIRELIAQTRSVASKIQVSMMFDGQSAVEVHSRTSMDDLKAFTSLSLYMKPPVKRPELTETADQFILYLGSKNAKKEYMGLAIKNDNLVYVYNLGTKDVEIPLDSKPVSSWPAYFSIVKIERVGKHGKVFLTVPSLSSTAEEKFIKKGEFSGDDSLLDLDPEDTVFYVGGVPSNFKLPTSLNLPGFVGCLELATLNNDVISLYNFKHIYNMDPSTSVPCARDKLAFTQSRAASYFFDGSGYAVVRDIPRRGKFGQVTRFDIEVRTPADNGLILLMVNGSMFFRLEMRNGYLHVFYDFGFSSGRVHLEDTLKKAQINDAKYHEISIIYHNDKKMILVVDRRHVKSMDNEKMKIPFTDIYIGGAPPEILQSRALRAHLPLDINFRGCMKGFQFQKKDFNLLEQTETLGVGYGCPEDSLISRRAYFNGQSFIASIQKISFFDGFEGGFNFRTLQPNGLLFYYASGSDVFSISLDNGTVIMDVKGIKVQSVDKQYNDGLSHFVISSVSPTRYELIVDKSRVGSKNPTKGKIEQTQASEKKFYFGGSPISAQYANFTGCISNAYFTRVDRDVEVEDFQRYTEKVHTSLYECPIESSPLFLLHKKGKNLSKPKASQNKKGGKSKDAPSWDPVALKLPERNTPRNSHCHLSNSPRAIEHAYQYGGTANSRQEFEHLKGDFGAKSQFSIRLRTRSSHGMIFYVSDQEENDFMTLFLAHGRLVYMFNVGHKKLKIRSQEKYNDGLWHDVIFIRERSSGRLVIDGLRVLEESLPPTEATWKIKGPIYLGGVAPGKAVKNVQINSIYSFSGCLSNLQLNGASITSASQTFSVTPCFEGPMETGTYFSTEGGYVVLDESFNIGLKFEIAFEVRPRSSSGTLVHGHSVNGEYLNVHMKNGQVIVKVNNGIRDFSTSVTPKQSLCDGRWHRITVIRDSNVVQLDVDSEVNHVVGPLNPKPIDHREPVFVGGVPESLLTPRLAPSKPFTGCIRHFVIDGHPVSFSKAALVSGAVSINSCPAADYKDDDDK
notes: The α4 chain alone, as the non-crosslinked partner in the minor fraction of r-laminin 8; also called FLAG-tagged α4 chain
As to B1, in assay [4], the binding result is “binds”.

Source of the values: patent publication US6638907 (BIOSTRATUM, dated 2003).
